Experimental data taken from IntAct's records for PubMed 26224785.

B1: Microsomal triglyceride transfer protein large subunit (Homo sapiens), P55157 (parent)
chain: MILLAVLFLCFISSYSASVKGHTTGLSLNNDRLYKLTYSTEVLLDRGKGKLQDSVGYRISSNVDVALLWRNPDGDDDQLIQITMKDVNVENVNQQRGEKSIFKGKSPSKIMGKENLEALQRPTLLHLIHGKVKEFYSYQNEAVAIENIKRGLASLFQTQLSSGTTNEVDISGNCKVTYQAHQDKVIKIKALDSCKIARSGFTTPNQVLGVSSKATSVTTYKIEDSFVIAVLAEETHNFGLNFLQTIKGKIVSKQKLELKTTEAGPRLMSGKQAAAIIKAVDSKYTAIPIVGQVFQSHCKGCPSLSELWRSTRKYLQPDNLSKAEAVRNFLAFIQHLRTAKKEEILQILKMENKEVLPQLVDAVTSAQTSDSLEAILDFLDFKSDSSIILQERFLYACGFASHPNEELLRALISKFKGSIGSSDIRETVMIITGTLVRKLCQNEGCKLKAVVEAKKLILGGLEKAEKKEDTRMYLLALKNALLPEGIPSLLKYAEAGEGPISHLATTALQRYDLPFITDEVKKTLNRIYHQNRKVHEKTVRTAAAAIILNNNPSYMDVKNILLSIGELPQEMNKYMLAIVQDILRFEMPASKIVRRVLKEMVAHNYDRFSRSGSSSAYTGYIERSPRSASTYSLDILYSGSGILRRSNLNIFQYIGKAGLHGSQVVIEAQGLEALIAATPDEGEENLDSYAGMSAILFDVQLRPVTFFNGYSDLMSKMLSASGDPISVVKGLILLIDHSQELQLQSGLKANIEVQGGLAIDISGAMEFSLWYRESKTRVKNRVTVVITTDITVDSSFVKAGLETSTETEAGLEFISTVQFSQYPFLVCMQMDKDEAPFRQFEKKYERLSTGRGYVSQKRKESVLAGCEFPLHQENSEMCKVVFAPQPDSTSSGWF
B2: Microsomal triglyceride transfer protein large subunit (Homo sapiens), P55157 (parent)
chain: B1 chain
partner: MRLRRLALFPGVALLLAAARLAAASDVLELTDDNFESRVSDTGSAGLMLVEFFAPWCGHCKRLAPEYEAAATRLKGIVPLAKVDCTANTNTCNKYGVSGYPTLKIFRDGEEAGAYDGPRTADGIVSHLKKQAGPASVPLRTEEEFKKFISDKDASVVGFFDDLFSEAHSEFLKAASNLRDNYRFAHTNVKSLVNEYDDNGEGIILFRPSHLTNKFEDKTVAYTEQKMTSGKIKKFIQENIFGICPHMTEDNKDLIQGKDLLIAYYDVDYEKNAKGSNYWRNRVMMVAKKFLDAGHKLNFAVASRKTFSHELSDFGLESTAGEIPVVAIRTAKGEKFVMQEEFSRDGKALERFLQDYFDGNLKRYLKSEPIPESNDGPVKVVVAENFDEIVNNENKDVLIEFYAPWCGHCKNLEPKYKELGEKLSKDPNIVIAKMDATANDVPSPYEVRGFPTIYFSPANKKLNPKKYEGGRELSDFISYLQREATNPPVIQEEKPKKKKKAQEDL

Variants of: B1
Settings: with apob_human APOB

Row | effect of a mutation on the interaction | Variant
1 | with no effect | K189L
2 | with no effect | K189R
3 | with no effect | K187R

Further lines, the variant ahead of its results:

Row | Variant | effect of a mutation on the interaction
4 | D169V | with no effect
5 | D169E | with no effect
6 | K187L | with no effect

Variants of: B2
Settings: with pdia3_chlae PDIA3, Q4VIT4

Row | effect of a mutation on the interaction | Variant
7 | with no effect | K187R
8 | decreasing interaction strength | K189L
9 | with no effect | K189R

Further lines, the variant ahead of its results:

Row | Variant | effect of a mutation on the interaction
10 | K187L | decreasing interaction strength
11 | D169E | with no effect
12 | D169V | disrupting interaction strength

Variants of: B2
Settings: with pdia3_chlae PDIA3, Q4VIT4
Remark: another data set of the same source

Row | effect of a mutation on the interaction | Variant
13 | with no effect | K187L
14 | with no effect | K189L
15 | with no effect | D169V
